{"source": "paper PMC4703387", "about": "“Identification of the Calmodulin-Binding Domains of Fas Death Receptor” (PLoS ONE, 2016)", "key": {"[1]": {"target": "calmodulin (Homo sapiens) (UniProt P0DP23)", "details": "cited from earlier work"}, "[2]": {"target": "calmodulin, calcium-bound (Ca2+/CaM) (UniProt P0DP23)", "experiment": "SEC; Superdex 75 (10/300 GL), 50 mM Tris pH 7.0, 100 mM NaCl, 5 mM CaCl2; samples ~50-150 uM; fractions by SDS-PAGE; calibration with a low molecular weight kit"}, "[3]": {"target": "calmodulin (Homo sapiens) (UniProt P0DP23)", "details": "cited from earlier work", "remark": "listed apart in the source"}, "[4]": {"target": "Fas-Pep2 (FasDD residues 251-288)", "experiment": "ITC; Ca2+/CaM at 195 uM titrated into Fas-Pep2 at 17 uM, 35°C, 50 mM HEPES pH 7.0, 100 mM NaCl, 5 mM CaCl2; single set of identical sites"}, "[5]": {"target": "Fas-Pep1 (FasDD residues 209-239)", "experiment": "ITC; Ca2+/CaM at 450 uM titrated into Fas-Pep1 at 25 uM, 25°C, 50 mM HEPES pH 7.0, 100 mM NaCl, 5 mM CaCl2; single set of identical sites"}}, "note": "Where two headings read alike, the source gives them in different places."}
{"substance": "Fas death domain peptide 214-238 (from UniProt P25445)", "values": [{"measurement": "Kd", "setting": "[1]", "value": 19500, "unit": "nM"}]}
{"substance": "Fas-Pep2 (FasDD residues 251-288) (peptide)", "values": [{"measurement": "stoichiometry N", "setting": "[2]", "value": 1}]}
{"substance": "Fas death domain death domain (from UniProt P25445)", "values": [{"measurement": "Kd", "setting": "[3]", "value": 2000, "unit": "nM"}]}
{"substance": "calmodulin, calcium-bound (Ca2+/CaM) (from UniProt P0DP23 1-149) (natural protein)", "values": [{"measurement": "Kd", "setting": "[4]", "value": 1100, "unit": "nM"}, {"measurement": "dH", "setting": "[4]", "value": -14.2, "unit": "kcal/mol"}, {"measurement": "stoichiometry N", "setting": "[4]", "value": 0.9}, {"measurement": "Kd", "setting": "[5]", "value": 300, "unit": "nM"}, {"measurement": "dH", "setting": "[5]", "value": 2.15, "unit": "kcal/mol"}, {"measurement": "stoichiometry N", "setting": "[5]", "value": 0.95}]}
{"substance": "Fas-Pep1 (FasDD residues 209-239) (peptide)", "values": [{"measurement": "stoichiometry N", "setting": "[2]", "value": 1}]}
